Columns and labels:
[1] = target: GST-tagged human FcRn-β2m (human) (UniProt P55899)
[2] = target: hu4D5 full-length human IgG1 antibody with acid-Fc (human); assay: BLI; same FAB2G experiment at pH 6.5, steady state analysis: equilibrium responses fit to a Langmuir isotherm; apparent
[3] = target: hu4D5 full-length human IgG1 antibody with wild-type Fc (human); assay: as above
[4] = target: hu4D5 full-length human IgG1 antibody with acid-Fc (human); assay: BLI; same FAB2G experiment at pH 7.4, steady state analysis: equilibrium responses fit to a Langmuir isotherm; apparent
[5] = target: hu4D5 full-length human IgG1 antibody with wild-type Fc (human); assay: as above
[6] = target: hu4D5 full-length human IgG1 antibody with acid-Fc (human); assay: BLI; antibody captured on anti-CH1 FAB2G tips; FcγRIIIa V158 (62.5-2000 nM) or F158 (156-5000 nM) in solution, pH 6.5; 1:1 model, full association and initial 5 s of dissociation; Kd = koff/kon; observed values
[7] = target: hu4D5 full-length human IgG1 antibody with wild-type Fc (human); assay: as above
[8] = target: hu4D5 full-length human IgG1 antibody with acid-Fc (human); assay: BLI; antibody captured on anti-CH1 FAB2G tips; FcγRIIIa V158 (62.5-2000 nM) or F158 (156-5000 nM) in solution, pH 7.4; 1:1 model, full association and initial 5 s of dissociation; Kd = koff/kon; observed values
[9] = target: hu4D5 full-length human IgG1 antibody with wild-type Fc (human); assay: as above
[10] = target: wild-type human IgG1 Fc displayed on the CHO cell surface (human); assay: flow cytometry on cells; Fc variants displayed on CHO-T cells as monoclonal populations; stained with monomeric FcγRIIIa V158 on fluorescent streptavidin (50 nM in Fig. 7A) in flow buffer at pH 6.5; percent of cells binding
wild-type human IgG1 Fc displayed on the CHO cell surface (human), sequence (P01857 1-350): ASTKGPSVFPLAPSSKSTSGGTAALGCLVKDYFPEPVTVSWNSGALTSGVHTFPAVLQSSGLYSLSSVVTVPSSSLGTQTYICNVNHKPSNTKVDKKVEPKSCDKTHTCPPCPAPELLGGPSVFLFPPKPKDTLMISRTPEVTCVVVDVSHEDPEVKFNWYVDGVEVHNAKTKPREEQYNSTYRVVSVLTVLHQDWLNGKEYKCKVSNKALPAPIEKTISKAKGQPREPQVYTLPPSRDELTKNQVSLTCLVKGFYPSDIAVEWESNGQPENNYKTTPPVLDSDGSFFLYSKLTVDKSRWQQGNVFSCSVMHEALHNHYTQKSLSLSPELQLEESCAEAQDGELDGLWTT

UniProt P55899, sequence (P55899 24-365, chain 1 of 2): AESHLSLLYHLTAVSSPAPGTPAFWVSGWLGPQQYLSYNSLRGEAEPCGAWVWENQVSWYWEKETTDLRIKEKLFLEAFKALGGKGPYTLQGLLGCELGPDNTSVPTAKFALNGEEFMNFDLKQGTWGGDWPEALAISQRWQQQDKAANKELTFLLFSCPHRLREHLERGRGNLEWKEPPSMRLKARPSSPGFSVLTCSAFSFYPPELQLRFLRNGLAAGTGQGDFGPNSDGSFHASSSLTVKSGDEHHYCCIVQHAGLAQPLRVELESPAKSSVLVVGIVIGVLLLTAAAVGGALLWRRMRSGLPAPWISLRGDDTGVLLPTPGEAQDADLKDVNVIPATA
UniProt P55899, sequence (P61769 21-119, chain 2 of 2, further chain): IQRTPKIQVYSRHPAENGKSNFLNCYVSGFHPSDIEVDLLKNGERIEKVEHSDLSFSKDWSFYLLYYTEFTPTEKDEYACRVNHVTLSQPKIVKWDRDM

**Q.** With “hu4D5 human IgG1 antibody with the M252Y/S254T/T256E (YTE) substitutions” as the substance, how does the serum beta elimination half-life (t1/2) in homozygous Tg32 mice expressing human FcRn, increase as compared to wild-type [1] read?
**A.** 1.4 fold

**Q.** Which Kd [2] does the source give for “human FcγRIIIa F158, AVI and His tagged, biotinylated (from UniProt P08637 17-254) (receptor)” here?
**A.** 603 nM

**Q.** What about the Kd [3] of the same substance?
**A.** 418 nM

**Q.** And the Kd [4]?
**A.** 1090 nM

**Q.** And the Kd [5]?
**A.** 513 nM

**Q.** What about the Kd [6] of the same substance?
**A.** 538 nM

**Q.** What about the koff [6] of the same substance?
**A.** 0.177 s⁻¹

**Q.** And the kon [6]?
**A.** 340000 M⁻¹ s⁻¹

**Q.** What about the Kd [7] of the same substance?
**A.** 401 nM

**Q.** What about the koff [7] of the same substance?
**A.** 0.119 s⁻¹

**Q.** And the kon [7]?
**A.** 300000 M⁻¹ s⁻¹

**Q.** And the Kd [8]?
**A.** 909 nM

**Q.** What about the koff [8] of the same substance?
**A.** 0.226 s⁻¹

**Q.** What about the kon [8] of the same substance?
**A.** 250000 M⁻¹ s⁻¹

**Q.** What about the Kd [9] of the same substance?
**A.** 484 nM

**Q.** And the koff [9]?
**A.** 0.134 s⁻¹

**Q.** And the kon [9]?
**A.** 280000 M⁻¹ s⁻¹

**Q.** With “biotinylated FcγRIIIa (allele V158) monomerically bound to fluorescent streptavidin (receptor)” as the substance, how does the ratio of the percent of cells binding at pH 6.5 versus the percent binding at pH 7.4 [10] read?
**A.** 1

**Q.** Which serum beta elimination half-life (t1/2) in homozygous Tg32 mice expressing human FcRn, 2 mg/kg intraperitoneally [1] does the source give for “hu4D5 full-length human IgG1 antibody with wild-type Fc” here?
**A.** 209 h
